Test results as given in the supplement of paper PMC7877785.
± gives the uncertainty stated by the source.

Assay: self-splicing fitness, log relative to wild type (ln ratio); higher = more splicing; Tetrahymena group I intron in knt gene, E. coli kanamycin selection, DiMSum; sequences stand for … in CUCUCU…GGAGGGAAAAGUUAUCAGGCAUGCACCUGGUAGCUAGUCUUUAAACCAAUAGAUUGCAUCGGUUUAAAAGGCAAGACCGUCAAAUUGCGGGAAAGGGGUCAACAGCCGUUCAGUACCAAGUCUCAGGGGAAACUUUGAGAUGGCCUUGCAAAGGGUAUGGUAAUAAGCUGACGGACAUGGUCCUAACCACGCAGCCAAGUCCUAAGUCAACAGAUCUUCUGUUGAUAUGGAUGCAGUUCACAGACUAAAUGUCGGUCGGGGAAGAUGUAUUCUUCUCAUAAGAUAUAGUCGGACCUCUCCUUAAUGGGAGCUAGCGGAUGAAGUGAUGCAACACUGGAGCCGCUGGGAACUAAUUUGUAUGCGAAAGUAUAUUGAUUAGUUUUGGAGUACUCGUGGUCG
How it was run: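 Fitness was computed with DiMSum as the error-weighted combination of replicate fold changes, kanamycin versus none, each normalised to wild type. The library randomised all eight intron nucleotides of the P1ex region, with the intron placed in the knt kanamycin-resistance gene on pET-22b(+) in E. coli BL21(DE3). Six replicate transformations were grown overnight at 37°C or 30°C on LB agar with or without 25 μg/mL kanamycin, plus 100 μg/mL carbenicillin, 50 μM IPTG and 0.2% rhamnose. Pooled colonies were amplicon-sequenced on an Illumina HiSeq 2500.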

Sequence	self-splicing fitness (ln) (30 °C)	self-splicing fitness (ln) (37 °C)
CAGUAGCAAUAUUACGUGCU	-2.95 ± 0.19	-1.84 ± 0.3
GUAAAGCAAUAUUACGAUUA	0.307 ± 0.087	0.518 ± 0.1
GGUAAGCAAUAUUACGGUGG	-2.82 ± 0.12	-3.18 ± 0.24
UCUAAGCAAUAUUACGGUCG	-1.34 ± 0.095	-0.375 ± 0.13
GGACAGCAAUAUUACGGAGU	-1.61 ± 0.12	-1.12 ± 0.11
AAUUAGCAAUAUUACGUCUA	-0.734 ± 0.087	-0.256 ± 0.093
UCACAGCAAUAUUACGCCCG	-0.978 ± 0.12	-0.555 ± 0.14
AACCAGCAAUAUUACGUAUG	-2 ± 0.076	-0.882 ± 0.072
AUUCAGCAAUAUUACGCGUG	-1.25 ± 0.054	-0.218 ± 0.069
AUUUAGCAAUAUUACGUCCC	-0.0323 ± 0.37	-0.682 ± 0.42
GCUUAGCAAUAUUACGUGUC	-1.23 ± 0.14	-0.348 ± 0.14
UUGGAGCAAUAUUACGCUUU	-2.75 ± 0.23	-2.3 ± 0.5
AAAAAGCAAUAUUACGGGUA	-1.61 ± 0.11	-0.435 ± 0.11
CGUAAGCAAUAUUACGGCCG	-0.668 ± 0.11	0.0976 ± 0.13
ACUCAGCAAUAUUACGUUGA	-2.37 ± 0.15	-0.607 ± 0.14
UGGGAGCAAUAUUACGUGGA	-2.94 ± 0.44	-2.11 ± 0.2
CCUUAGCAAUAUUACGAGAA	-2.19 ± 0.38	-2.79 ± 0.47
CCAGAGCAAUAUUACGAGUC	-2 ± 0.19	-1.69 ± 0.28
ACUCAGCAAUAUUACGCCGA	-3.36 ± 0.39	-2.3 ± 0.28

Sequence	self-splicing fitness (ln) (30 °C)	self-splicing fitness (ln) (37 °C)
UGCCAGCAAUAUUACGCAUG	-1.28 ± 0.085	-1.43 ± 0.13
CGCUAGCAAUAUUACGCCCU	0.0689 ± 0.15	-0.957 ± 0.24
UCUAAGCAAUAUUACGCAGC	-1.83 ± 0.23	-2.07 ± 0.31
GGUUAGCAAUAUUACGCGAA	-0.818 ± 0.25	-0.0649 ± 0.35
CUUCAGCAAUAUUACGCUAC	-2.4 ± 0.22	-2.25 ± 0.37
GGUAAGCAAUAUUACGGGCU	-1.76 ± 0.13	-0.874 ± 0.12
CAGUAGCAAUAUUACGUUUA	-3.19 ± 0.23	-3.02 ± 0.25
AUAGAGCAAUAUUACGCUCU	-2.65 ± 0.28	-1.32 ± 0.42
GGUGAGCAAUAUUACGUUUU	-2.94 ± 0.26	-1.6 ± 0.23
ACCUAGCAAUAUUACGAUAG	-3.99 ± 0.35	-2.49 ± 0.41
CAGUAGCAAUAUUACGUGCG	-0.0402 ± 0.068	0.239 ± 0.088
CUCCAGCAAUAUUACGGAUG	-2.46 ± 0.13	-1.38 ± 0.14
AGCUAGCAAUAUUACGUACA	-2.25 ± 0.23	0.0781 ± 0.18
GGAAAGCAAUAUUACGGGCC	-2.41 ± 0.23	-2.16 ± 0.32
ACAUAGCAAUAUUACGGACG	-1.32 ± 0.1	-0.653 ± 0.14
GGGUAGCAAUAUUACGCUUU	-0.389 ± 0.11	-0.688 ± 0.12
AAUUAGCAAUAUUACGCCAG	–	-2.11 ± 0.31
UGUAAGCAAUAUUACGAAUG	-0.511 ± 0.077	-0.125 ± 0.099
